Measurements reported in US10087225B2, “Formulation of MK2 inhibitor peptides” (MOERAE MATRIX, INC., priority 2015, dated 2018).

Tests used:
Experiment in all cases: Kinase Profiling Assay
Assay type in all cases: biochemical
Conditions in all cases: for % activity: 100 μM
[1] = target: cKit(h) (Homo sapiens, UniProt P10721)
[2] = target: PKCδ(h) (Homo sapiens, UniProt Q05655)
[3] = target: SRPK2(h) (Homo sapiens, UniProt P78362)
[4] = target: Met(Y1248H)(h) (Homo sapiens, UniProt P08581, Y1230H)
[5] = target: PTK5(h) (Homo sapiens, UniProt P42685)
PTK5(h), sequence (P42685 whole entry): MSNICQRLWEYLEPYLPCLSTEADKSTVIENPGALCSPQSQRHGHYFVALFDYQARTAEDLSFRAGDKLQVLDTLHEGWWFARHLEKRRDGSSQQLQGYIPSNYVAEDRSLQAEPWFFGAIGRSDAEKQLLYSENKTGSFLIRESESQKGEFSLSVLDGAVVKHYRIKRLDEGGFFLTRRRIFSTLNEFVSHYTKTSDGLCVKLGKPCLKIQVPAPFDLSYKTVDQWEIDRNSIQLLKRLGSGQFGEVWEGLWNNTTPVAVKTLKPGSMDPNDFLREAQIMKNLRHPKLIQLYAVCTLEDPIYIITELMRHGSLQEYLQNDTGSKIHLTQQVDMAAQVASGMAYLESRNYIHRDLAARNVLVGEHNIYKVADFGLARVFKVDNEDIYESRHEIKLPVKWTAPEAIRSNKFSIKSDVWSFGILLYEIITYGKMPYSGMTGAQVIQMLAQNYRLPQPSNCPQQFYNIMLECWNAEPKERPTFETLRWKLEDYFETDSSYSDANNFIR

[6] = target: EphA4(h) (Homo sapiens, UniProt P54764)
EphA4(h), sequence (P54764 20-986): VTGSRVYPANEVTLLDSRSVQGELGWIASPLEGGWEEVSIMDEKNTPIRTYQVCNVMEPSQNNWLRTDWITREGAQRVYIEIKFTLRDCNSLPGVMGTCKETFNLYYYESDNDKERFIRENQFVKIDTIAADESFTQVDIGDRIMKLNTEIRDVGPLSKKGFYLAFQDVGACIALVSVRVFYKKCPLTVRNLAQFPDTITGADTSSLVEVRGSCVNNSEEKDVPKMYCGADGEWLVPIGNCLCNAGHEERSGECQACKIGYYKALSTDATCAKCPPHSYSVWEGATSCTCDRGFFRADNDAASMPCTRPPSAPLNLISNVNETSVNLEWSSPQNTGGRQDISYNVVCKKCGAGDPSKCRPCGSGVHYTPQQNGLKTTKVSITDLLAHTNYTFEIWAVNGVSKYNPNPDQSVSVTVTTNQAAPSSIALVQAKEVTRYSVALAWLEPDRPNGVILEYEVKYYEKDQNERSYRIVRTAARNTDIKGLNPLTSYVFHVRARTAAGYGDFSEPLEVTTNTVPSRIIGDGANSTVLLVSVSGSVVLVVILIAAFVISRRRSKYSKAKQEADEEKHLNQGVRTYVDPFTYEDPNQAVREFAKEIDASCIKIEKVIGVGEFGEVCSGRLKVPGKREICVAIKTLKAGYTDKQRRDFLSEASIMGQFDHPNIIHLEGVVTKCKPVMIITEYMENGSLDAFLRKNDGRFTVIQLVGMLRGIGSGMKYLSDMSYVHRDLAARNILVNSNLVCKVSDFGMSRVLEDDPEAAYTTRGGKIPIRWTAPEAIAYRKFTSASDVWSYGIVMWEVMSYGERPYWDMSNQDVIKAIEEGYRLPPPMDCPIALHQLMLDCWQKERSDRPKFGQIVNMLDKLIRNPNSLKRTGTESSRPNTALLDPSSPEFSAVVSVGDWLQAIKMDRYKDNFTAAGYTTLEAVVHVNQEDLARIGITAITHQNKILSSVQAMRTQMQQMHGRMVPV

[7] = target: MAPKAP-K3(h) (Homo sapiens, UniProt Q16644)
MAPKAP-K3(h), sequence (Q16644 whole entry): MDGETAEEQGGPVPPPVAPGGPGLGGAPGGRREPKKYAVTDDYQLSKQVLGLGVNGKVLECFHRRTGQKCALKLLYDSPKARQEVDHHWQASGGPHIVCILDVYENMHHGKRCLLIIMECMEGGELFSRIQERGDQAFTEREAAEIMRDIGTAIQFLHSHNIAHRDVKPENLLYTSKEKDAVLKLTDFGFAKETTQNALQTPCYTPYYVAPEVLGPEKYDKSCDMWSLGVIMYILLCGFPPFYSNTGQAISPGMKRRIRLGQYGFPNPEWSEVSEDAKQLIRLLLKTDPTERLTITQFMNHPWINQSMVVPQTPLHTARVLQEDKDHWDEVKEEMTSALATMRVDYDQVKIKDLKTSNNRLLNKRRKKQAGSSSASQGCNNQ

[8] = target: T1, TSSK1(h) (Homo sapiens, UniProt Q9BXA7)
T1 sequence (Q9BXA7 1-367): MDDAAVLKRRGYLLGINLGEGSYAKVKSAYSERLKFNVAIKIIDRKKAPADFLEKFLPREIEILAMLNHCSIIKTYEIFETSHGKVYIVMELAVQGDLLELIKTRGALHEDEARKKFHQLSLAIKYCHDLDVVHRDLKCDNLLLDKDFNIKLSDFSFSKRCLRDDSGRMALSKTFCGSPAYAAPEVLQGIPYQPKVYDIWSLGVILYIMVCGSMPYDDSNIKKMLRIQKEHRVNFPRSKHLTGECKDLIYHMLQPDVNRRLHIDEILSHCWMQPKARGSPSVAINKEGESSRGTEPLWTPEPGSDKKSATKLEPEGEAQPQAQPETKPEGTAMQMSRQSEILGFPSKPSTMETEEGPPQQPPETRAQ

[9] = target: MLK1(h) (Homo sapiens, UniProt P80192)
[10] = target: LOK(h) (Homo sapiens, UniProt O94804)
LOK(h), sequence (O94804 whole entry): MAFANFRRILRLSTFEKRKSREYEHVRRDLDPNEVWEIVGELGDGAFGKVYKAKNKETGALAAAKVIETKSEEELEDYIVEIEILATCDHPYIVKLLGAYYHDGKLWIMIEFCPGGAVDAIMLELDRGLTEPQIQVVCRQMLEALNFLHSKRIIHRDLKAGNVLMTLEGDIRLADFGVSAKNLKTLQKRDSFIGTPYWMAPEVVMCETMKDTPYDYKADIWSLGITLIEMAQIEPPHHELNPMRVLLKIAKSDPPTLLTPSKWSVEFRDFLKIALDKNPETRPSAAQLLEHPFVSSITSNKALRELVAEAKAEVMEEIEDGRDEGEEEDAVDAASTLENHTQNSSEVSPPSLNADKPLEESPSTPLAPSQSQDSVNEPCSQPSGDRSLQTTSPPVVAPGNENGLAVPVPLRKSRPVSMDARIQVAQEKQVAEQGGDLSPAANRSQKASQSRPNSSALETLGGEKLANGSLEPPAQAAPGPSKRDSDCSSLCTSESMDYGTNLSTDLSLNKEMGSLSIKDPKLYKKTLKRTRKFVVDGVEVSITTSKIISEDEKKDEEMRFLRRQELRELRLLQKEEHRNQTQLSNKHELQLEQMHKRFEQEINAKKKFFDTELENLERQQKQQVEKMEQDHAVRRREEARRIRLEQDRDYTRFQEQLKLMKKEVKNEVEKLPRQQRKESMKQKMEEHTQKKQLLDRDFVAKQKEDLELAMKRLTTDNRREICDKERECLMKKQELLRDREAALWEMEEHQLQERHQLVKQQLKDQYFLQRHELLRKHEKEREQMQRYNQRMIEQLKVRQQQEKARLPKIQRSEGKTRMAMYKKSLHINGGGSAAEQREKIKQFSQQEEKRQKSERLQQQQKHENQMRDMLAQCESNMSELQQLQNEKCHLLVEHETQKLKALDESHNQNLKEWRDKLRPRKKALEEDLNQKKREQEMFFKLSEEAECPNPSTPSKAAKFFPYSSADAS

[11] = target: Tie2(h) (Homo sapiens, UniProt Q02763)
Tie2(h), sequence (Q02763 23-1124): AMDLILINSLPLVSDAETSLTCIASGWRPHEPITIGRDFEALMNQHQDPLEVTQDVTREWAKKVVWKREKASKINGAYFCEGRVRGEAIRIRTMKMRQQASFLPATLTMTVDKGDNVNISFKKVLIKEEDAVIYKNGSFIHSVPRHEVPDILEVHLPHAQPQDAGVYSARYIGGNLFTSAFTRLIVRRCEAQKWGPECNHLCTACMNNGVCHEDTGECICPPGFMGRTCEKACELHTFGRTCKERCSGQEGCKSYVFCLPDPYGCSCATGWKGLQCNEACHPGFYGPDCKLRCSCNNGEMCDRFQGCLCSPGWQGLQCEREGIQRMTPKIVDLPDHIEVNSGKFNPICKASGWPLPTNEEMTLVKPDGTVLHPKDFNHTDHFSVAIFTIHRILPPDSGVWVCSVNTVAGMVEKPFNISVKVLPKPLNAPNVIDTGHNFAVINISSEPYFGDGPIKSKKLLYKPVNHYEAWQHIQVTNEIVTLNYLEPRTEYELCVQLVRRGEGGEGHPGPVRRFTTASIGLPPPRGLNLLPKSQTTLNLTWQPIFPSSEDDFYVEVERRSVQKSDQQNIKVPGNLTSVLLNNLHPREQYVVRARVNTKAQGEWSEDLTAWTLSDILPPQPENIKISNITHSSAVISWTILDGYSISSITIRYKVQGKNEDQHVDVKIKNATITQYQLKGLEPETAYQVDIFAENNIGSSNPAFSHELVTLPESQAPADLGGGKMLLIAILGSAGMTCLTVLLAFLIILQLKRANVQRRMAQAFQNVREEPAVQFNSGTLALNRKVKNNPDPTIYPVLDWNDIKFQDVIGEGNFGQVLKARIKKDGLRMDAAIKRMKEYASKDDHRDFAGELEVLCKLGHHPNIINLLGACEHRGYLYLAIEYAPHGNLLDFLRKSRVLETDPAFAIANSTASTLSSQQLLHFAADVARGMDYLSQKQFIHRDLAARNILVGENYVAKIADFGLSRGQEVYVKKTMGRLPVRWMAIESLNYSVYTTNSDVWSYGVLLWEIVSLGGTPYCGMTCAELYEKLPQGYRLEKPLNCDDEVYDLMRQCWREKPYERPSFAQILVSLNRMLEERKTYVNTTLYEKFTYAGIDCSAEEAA

[12] = target: T2, PKCμ(h) (Homo sapiens, UniProt Q15139)
T2 sequence (Q15139 1-912): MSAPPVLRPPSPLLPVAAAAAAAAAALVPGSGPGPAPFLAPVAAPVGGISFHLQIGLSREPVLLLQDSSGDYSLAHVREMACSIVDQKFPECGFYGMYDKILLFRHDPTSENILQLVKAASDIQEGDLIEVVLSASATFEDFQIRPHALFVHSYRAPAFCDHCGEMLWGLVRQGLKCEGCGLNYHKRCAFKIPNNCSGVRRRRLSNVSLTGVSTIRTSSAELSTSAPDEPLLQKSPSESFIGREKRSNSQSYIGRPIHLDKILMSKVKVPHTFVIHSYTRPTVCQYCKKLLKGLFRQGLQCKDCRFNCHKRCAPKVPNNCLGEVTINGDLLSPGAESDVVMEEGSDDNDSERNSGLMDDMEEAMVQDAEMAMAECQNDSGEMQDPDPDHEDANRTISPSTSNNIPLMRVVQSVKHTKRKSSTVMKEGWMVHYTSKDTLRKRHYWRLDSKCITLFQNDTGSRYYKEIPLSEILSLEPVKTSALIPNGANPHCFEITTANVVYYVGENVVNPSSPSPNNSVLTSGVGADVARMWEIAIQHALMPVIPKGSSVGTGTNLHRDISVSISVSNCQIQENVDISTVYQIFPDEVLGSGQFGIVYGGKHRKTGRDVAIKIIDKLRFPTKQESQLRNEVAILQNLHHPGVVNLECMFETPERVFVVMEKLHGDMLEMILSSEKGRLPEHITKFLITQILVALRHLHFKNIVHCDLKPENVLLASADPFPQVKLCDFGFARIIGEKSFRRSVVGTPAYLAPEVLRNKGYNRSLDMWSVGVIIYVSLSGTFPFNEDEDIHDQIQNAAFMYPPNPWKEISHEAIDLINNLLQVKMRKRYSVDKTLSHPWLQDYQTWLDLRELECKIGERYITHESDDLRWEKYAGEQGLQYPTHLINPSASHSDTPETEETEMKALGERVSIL

PKCδ(h), sequence (Q05655 whole entry): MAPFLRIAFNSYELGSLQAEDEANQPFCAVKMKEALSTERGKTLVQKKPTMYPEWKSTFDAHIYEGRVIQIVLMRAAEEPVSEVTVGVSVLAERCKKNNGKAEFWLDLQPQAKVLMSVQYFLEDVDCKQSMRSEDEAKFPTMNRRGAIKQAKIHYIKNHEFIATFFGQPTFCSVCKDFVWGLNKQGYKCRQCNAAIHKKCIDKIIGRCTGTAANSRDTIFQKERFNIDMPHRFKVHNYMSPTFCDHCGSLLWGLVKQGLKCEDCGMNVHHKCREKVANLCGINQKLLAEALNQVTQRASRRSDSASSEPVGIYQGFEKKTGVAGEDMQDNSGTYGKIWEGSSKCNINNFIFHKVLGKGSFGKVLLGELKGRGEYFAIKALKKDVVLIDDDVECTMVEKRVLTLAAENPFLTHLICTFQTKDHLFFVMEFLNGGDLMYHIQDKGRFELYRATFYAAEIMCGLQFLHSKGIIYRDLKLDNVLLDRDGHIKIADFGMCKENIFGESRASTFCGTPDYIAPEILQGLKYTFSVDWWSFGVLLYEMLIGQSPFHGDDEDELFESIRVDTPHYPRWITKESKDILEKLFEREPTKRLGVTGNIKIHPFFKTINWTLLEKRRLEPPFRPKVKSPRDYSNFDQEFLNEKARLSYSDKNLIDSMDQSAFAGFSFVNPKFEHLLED

Row | Substance | % activity [1] [%] | % activity [2] [%] | % activity [3] [%] | % activity [4] [%] | % activity [5] [%] | % activity [6] [%] | % activity [7] [%] | % activity [8] [%] | % activity [9] [%] | % activity [10] [%] | % activity [11] [%] | % activity [12] [%] | also measured
1 | H-YARAAARQARAKALARQLGVAA-OH [MMI-0100] |  |  |  |  |  |  |  |  |  |  |  |  | activity at 100 µM [1]: 95%; activity at 100 µM [2]: 100%; activity at 100 µM [3]: 92%; activity at 100 µM [4]: 88%; activity at 100 µM [5]: 135%; activity at 100 µM [6]: 110%; activity at 100 µM [7]: 27%; activity at 100 µM [8]: 99%; activity at 100 µM [9]: 77%; activity at 100 µM [10]: 37%; activity at 100 µM [11]: 28%; activity at 100 µM [12]: 79%
2 | HRRIKAWLKKIKALARQLGVAA (Mammalian) [MMI-0500] | 45 | 61 | 80 | 126 | 96 | 48 | 9 | 46 | 43 | 7 | 22 | 10 | 
3 | YARAAARQARAKALNRQLGVA (Mammalian) [MMI-0200] | 110 | 101 | 100 | 153 | 108 | 127 | 39 | 98 | 84 | 67 | 53 | 73 | 
